Data published in article PMC7949044, “The cytoplasmic domain of the AAA+ protease FtsH is tilted with respect to the membrane to facilitate substrate entry” (The Journal of Biological Chemistry, 2020).

Legend:
[1] = target: AaFtsH-Δ20 mutant (Aquifex aeolicus) (UniProt O67077); test: SEC-MALS; Superose 6 Increase 10/300 GL, 20 mM Tris-HCl pH 8.0, 150 mM NaCl, 0.01% LMNG, room temperature; protein conjugate analysis; step: subunits to hexamer (second peak)
purified protein = substrate: Nc1ncnc2c1ncn2[C@@H]1O[C@H](COP(=O)(O)OP(=O)(O)OP(=O)(O)O)[C@@H](O)[C@H]1O; test: purified protein; details: 50 mM Tris-HCl pH 8.0, 150 mM NaCl, 10 mM MgCl2, 60 °C, 0.25 μM AaFtsH (monomer concentration)
[2] = target: the molecule itself; test: SEC-MALS; Superose 6 Increase 10/300 GL, 20 mM Tris-HCl pH 8.0, 150 mM NaCl, 0.01% LMNG, room temperature; protein conjugate analysis; step: subunits to hexamer (second peak)
[3] = target: the molecule itself; test: SEC-MALS; Superose 6 Increase 10/300 GL, 20 mM Tris-HCl pH 8.0, 150 mM NaCl, 0.01% LMNG, room temperature; protein conjugate analysis; step: two hexamers to a dodecamer in one LMNG micelle (first peak)

Row | stoichiometry N [1] | Molecule | Km (purified protein) | kcat (purified protein) | stoichiometry N [2] | stoichiometry N [3]
1 | 6 | AaFtsH-Δ20 mutant (from UniProt O67077 1-634) (enzyme) |  |  |  | 
2 |  | AaFtsH hexamer (Aquifex aeolicus VF5) (protein) MNALKNFFIWAIIIGAAIVAFNLFEGKREFTTKVSLNEVVKLVEEGKVSYAEVRGNTAIIQTKDGQKLEVTLPPNTNLVDKMVEKGVRVEVANPEPPGGWLVNVFLSWLPILFFIGIWIFLLRQMSGGGNVNRAFNFGKSRAKVYIEEKPKVTFKDVAGIEEVKEEVKEIIEYLKDPVKFQKLGGRPPKGVLLYGEPGVGKTLLAKAIAGEAHVPFISVSGSDFVEMFVGVGAARVRDLFETAKKHAPCIIFIDEIDAVGRARGAIPVGGGHDEREQTLNQLLVEMDGFDTSDGIIVIAATNRPDILDPALLRPGRFDRQIFIPKPDVRGRYEILKVHARNKKLAKDVDLEFVARATPGFTGADLENLLNEAALLAARKGKEEITMEEIEEALDRITMGLERKGMTISPKEKEKIAIHEAGHALMGLVSDDDDKVHKISIIPRGMALGVTQQLPIEDKHIYDKKDLYNKILVLLGGRAAEEVFFGKDGITTGAENDLQRATDLAYRMVSMWGMSDKVGPIAIRRVANPFLGGMTTAVDTSPDLLREIDEEVKRIITEQYEKAKAIVEEYKEPLKAVVKKLLEKETITCEEFVEVFKLYGIELKDKCKKEELFDKDRKSEENKELKSEEVKEEVV | 600 (95% CI: 480–754) μM | 1.05 s⁻¹ |  | 
3 |  | AaFtsH dodecamer (Aquifex aeolicus VF5) (protein) MNALKNFFIWAIIIGAAIVAFNLFEGKREFTTKVSLNEVVKLVEEGKVSYAEVRGNTAIIQTKDGQKLEVTLPPNTNLVDKMVEKGVRVEVANPEPPGGWLVNVFLSWLPILFFIGIWIFLLRQMSGGGNVNRAFNFGKSRAKVYIEEKPKVTFKDVAGIEEVKEEVKEIIEYLKDPVKFQKLGGRPPKGVLLYGEPGVGKTLLAKAIAGEAHVPFISVSGSDFVEMFVGVGAARVRDLFETAKKHAPCIIFIDEIDAVGRARGAIPVGGGHDEREQTLNQLLVEMDGFDTSDGIIVIAATNRPDILDPALLRPGRFDRQIFIPKPDVRGRYEILKVHARNKKLAKDVDLEFVARATPGFTGADLENLLNEAALLAARKGKEEITMEEIEEALDRITMGLERKGMTISPKEKEKIAIHEAGHALMGLVSDDDDKVHKISIIPRGMALGVTQQLPIEDKHIYDKKDLYNKILVLLGGRAAEEVFFGKDGITTGAENDLQRATDLAYRMVSMWGMSDKVGPIAIRRVANPFLGGMTTAVDTSPDLLREIDEEVKRIITEQYEKAKAIVEEYKEPLKAVVKKLLEKETITCEEFVEVFKLYGIELKDKCKKEELFDKDRKSEENKELKSEEVKEEVV | 518 (95% CI: 432–625) μM | 1.02 s⁻¹ |  | 
4 |  | full-length Aquifex aeolicus FtsH (enzyme, UniProt O67077 1-634, looked up, the cited crystal structure PDB 4WW0 holds only the cytosolic domain, residues 141-608; The molecule is the protomer; In LMNG it is found as a hexamer (second SEC peak) and as a dodecamer of two hexamers in one LMNG micelle (first SEC peak); Before SEC it was incubated overnight at 60 °C with 20 mM ATP, 10 mM MgCl2 and 25 uM ZnCl2; also called AaFtsH; AaFtsH wildtype; source: E. coli, …) MNALKNFFIWAIIIGAAIVAFNLFEGKREFTTKVSLNEVVKLVEEGKVSYAEVRGNTAIIQTKDGQKLEVTLPPNTNLVDKMVEKGVRVEVANPEPPGGWLVNVFLSWLPILFFIGIWIFLLRQMSGGGNVNRAFNFGKSRAKVYIEEKPKVTFKDVAGIEEVKEEVKEIIEYLKDPVKFQKLGGRPPKGVLLYGEPGVGKTLLAKAIAGEAHVPFISVSGSDFVEMFVGVGAARVRDLFETAKKHAPCIIFIDEIDAVGRARGAIPVGGGHDEREQTLNQLLVEMDGFDTSDGIIVIAATNRPDILDPALLRPGRFDRQIFIPKPDVRGRYEILKVHARNKKLAKDVDLEFVARATPGFTGADLENLLNEAALLAARKGKEEITMEEIEEALDRITMGLERKGMTISPKEKEKIAIHEAGHALMGLVSDDDDKVHKISIIPRGMALGVTQQLPIEDKHIYDKKDLYNKILVLLGGRAAEEVFFGKDGITTGAENDLQRATDLAYRMVSMWGMSDKVGPIAIRRVANPFLGGMTTAVDTSPDLLREIDEEVKRIITEQYEKAKAIVEEYKEPLKAVVKKLLEKETITCEEFVEVFKLYGIELKDKCKKEELFDKDRKSEENKELKSEEVKEEVV |  |  | 6 | ~12
